{"source": "patent US20150258192A1", "about": "“COMPOSITIONS AND METHODS FOR PREVENTING OR TREATING CHRONIC LUNG ALLOGRAFT DYSFUNCTION (CLAD) AND IDIOPATHIC PULMONARY FIBROSIS (IPF)” (priority 2014, published 2015)", "experiment_in_all_cases": "Kinase Profiling Assay", "assay_type_in_all_cases": "biochemical", "details_in_all_cases": "peptide 100 μM", "key": {"CDK6/cyclinD3(h)": {"target": "CDK6/cyclinD3(h) (Homo sapiens, UniProt Q00534)", "sequence (Q00534 whole entry)": "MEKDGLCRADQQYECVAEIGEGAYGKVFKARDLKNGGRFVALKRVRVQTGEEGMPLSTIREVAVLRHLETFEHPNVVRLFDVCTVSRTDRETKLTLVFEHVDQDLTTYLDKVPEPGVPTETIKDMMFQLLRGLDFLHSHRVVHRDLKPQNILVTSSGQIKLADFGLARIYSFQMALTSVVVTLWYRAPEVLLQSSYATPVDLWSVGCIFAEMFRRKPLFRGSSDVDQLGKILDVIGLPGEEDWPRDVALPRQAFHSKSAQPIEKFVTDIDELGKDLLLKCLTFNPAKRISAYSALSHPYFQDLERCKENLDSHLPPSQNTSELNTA", "sequence (P30281 whole entry partner)": "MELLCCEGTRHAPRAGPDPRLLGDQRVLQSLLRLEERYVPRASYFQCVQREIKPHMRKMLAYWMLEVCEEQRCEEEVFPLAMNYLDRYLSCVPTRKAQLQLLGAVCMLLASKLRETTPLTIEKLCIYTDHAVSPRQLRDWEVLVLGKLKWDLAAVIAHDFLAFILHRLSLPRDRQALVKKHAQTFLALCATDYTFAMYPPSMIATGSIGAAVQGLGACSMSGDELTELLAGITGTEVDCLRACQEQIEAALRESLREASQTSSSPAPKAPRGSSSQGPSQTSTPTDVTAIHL", "how_it_was_run": "(§1)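 Activity remaining relative to an uninhibited control was determined by scintillation counting of labeled substrate bound to a negatively charged filter. Radiolabeled phosphate came from ATP; the substrate carried positive charge. Duplicate measurements, within a 266-kinase human panel.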"}, "CaMKIV(h)": {"target": "T1, CaMKIV(h) (Homo sapiens, UniProt Q16566)", "T1 sequence (Q16566 1-473)": "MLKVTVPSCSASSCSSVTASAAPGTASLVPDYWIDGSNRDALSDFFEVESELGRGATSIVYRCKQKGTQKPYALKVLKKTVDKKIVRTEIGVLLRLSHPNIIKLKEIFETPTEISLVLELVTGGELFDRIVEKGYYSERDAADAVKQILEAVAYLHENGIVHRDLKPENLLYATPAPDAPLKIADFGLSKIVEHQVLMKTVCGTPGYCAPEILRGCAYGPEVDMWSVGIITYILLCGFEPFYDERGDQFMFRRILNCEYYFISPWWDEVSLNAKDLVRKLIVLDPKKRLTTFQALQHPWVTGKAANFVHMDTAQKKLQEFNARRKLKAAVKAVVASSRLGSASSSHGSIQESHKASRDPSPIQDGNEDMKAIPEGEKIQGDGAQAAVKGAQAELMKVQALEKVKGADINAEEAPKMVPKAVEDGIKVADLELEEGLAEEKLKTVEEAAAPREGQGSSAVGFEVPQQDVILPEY", "how_it_was_run": "as §1"}, "EphA4(h)": {"target": "EphA4(h) (Homo sapiens, UniProt P54764)", "sequence (P54764 20-986)": "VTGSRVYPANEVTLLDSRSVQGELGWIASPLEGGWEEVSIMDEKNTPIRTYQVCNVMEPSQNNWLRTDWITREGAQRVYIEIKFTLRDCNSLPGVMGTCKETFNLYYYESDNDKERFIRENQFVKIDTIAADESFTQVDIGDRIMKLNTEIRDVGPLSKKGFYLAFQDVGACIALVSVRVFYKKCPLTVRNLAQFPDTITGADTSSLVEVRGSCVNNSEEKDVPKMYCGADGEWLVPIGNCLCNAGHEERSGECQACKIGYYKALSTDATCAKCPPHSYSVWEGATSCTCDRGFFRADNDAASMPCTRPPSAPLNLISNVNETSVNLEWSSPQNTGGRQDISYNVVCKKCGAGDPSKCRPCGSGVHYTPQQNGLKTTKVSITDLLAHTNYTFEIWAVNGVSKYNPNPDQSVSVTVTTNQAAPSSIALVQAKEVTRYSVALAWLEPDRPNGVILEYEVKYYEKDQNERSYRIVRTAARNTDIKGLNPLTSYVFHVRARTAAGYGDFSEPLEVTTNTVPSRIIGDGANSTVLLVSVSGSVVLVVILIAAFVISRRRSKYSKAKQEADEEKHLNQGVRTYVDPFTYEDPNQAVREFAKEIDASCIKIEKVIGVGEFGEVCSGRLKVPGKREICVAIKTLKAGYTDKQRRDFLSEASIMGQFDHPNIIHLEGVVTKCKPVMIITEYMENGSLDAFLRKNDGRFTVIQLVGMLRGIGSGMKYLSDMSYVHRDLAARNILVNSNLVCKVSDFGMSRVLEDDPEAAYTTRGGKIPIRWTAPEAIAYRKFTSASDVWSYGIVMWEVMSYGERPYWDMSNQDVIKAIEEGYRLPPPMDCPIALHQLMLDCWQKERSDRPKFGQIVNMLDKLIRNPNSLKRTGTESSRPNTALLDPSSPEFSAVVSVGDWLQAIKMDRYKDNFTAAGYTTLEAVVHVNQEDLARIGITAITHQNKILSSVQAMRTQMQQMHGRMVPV", "how_it_was_run": "as §1"}, "IKKα(h)": {"target": "T2, IKKα(h) (Homo sapiens, UniProt O15111)", "T2 construct": "purchased Millipore", "T2 sequence (O15111 1-745)": "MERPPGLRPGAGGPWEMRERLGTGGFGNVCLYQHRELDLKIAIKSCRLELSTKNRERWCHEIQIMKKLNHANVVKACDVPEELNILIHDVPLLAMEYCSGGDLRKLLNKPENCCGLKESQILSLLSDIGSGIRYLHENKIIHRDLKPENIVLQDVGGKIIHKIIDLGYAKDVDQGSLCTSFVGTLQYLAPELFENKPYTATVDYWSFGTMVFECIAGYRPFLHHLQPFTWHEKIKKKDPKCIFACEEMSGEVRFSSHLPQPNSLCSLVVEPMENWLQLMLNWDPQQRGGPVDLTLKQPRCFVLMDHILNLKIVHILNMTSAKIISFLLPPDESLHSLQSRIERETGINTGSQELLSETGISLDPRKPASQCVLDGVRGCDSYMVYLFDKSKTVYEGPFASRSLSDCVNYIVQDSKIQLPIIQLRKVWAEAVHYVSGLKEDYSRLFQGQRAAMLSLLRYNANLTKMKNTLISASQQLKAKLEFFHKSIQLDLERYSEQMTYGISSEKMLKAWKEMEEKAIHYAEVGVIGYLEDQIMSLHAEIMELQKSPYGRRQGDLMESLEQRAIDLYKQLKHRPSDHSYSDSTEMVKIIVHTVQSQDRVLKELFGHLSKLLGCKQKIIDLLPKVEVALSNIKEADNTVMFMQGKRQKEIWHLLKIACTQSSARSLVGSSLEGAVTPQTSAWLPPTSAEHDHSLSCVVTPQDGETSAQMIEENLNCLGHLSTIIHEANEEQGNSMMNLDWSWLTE", "how_it_was_run": "as §1"}, "NEK3(h)": {"target": "T3, NEK3(h) (Homo sapiens, UniProt P51956)", "T3 construct": "purchased Millipore", "T3 sequence (P51956 1-506)": "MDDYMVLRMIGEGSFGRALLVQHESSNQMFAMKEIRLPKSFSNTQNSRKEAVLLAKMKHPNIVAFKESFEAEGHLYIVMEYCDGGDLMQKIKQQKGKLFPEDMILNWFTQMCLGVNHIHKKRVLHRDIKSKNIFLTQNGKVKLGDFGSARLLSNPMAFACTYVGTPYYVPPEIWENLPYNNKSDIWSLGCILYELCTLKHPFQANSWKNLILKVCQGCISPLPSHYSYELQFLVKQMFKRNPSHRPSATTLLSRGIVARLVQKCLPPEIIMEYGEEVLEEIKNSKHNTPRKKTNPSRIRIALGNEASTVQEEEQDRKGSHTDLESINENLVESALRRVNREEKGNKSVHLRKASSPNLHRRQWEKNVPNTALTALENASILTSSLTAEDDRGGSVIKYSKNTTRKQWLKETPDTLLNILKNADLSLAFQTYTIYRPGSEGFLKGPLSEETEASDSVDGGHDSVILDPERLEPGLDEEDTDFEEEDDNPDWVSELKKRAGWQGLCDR", "how_it_was_run": "as §1"}, "PASK(h)": {"target": "PASK(h) (Homo sapiens, UniProt Q96RG2)", "how_it_was_run": "as §1"}, "WNK2(h)": {"target": "WNK2(h) (Homo sapiens, UniProt Q9Y3S1)", "sequence (Q9Y3S1 whole entry)": "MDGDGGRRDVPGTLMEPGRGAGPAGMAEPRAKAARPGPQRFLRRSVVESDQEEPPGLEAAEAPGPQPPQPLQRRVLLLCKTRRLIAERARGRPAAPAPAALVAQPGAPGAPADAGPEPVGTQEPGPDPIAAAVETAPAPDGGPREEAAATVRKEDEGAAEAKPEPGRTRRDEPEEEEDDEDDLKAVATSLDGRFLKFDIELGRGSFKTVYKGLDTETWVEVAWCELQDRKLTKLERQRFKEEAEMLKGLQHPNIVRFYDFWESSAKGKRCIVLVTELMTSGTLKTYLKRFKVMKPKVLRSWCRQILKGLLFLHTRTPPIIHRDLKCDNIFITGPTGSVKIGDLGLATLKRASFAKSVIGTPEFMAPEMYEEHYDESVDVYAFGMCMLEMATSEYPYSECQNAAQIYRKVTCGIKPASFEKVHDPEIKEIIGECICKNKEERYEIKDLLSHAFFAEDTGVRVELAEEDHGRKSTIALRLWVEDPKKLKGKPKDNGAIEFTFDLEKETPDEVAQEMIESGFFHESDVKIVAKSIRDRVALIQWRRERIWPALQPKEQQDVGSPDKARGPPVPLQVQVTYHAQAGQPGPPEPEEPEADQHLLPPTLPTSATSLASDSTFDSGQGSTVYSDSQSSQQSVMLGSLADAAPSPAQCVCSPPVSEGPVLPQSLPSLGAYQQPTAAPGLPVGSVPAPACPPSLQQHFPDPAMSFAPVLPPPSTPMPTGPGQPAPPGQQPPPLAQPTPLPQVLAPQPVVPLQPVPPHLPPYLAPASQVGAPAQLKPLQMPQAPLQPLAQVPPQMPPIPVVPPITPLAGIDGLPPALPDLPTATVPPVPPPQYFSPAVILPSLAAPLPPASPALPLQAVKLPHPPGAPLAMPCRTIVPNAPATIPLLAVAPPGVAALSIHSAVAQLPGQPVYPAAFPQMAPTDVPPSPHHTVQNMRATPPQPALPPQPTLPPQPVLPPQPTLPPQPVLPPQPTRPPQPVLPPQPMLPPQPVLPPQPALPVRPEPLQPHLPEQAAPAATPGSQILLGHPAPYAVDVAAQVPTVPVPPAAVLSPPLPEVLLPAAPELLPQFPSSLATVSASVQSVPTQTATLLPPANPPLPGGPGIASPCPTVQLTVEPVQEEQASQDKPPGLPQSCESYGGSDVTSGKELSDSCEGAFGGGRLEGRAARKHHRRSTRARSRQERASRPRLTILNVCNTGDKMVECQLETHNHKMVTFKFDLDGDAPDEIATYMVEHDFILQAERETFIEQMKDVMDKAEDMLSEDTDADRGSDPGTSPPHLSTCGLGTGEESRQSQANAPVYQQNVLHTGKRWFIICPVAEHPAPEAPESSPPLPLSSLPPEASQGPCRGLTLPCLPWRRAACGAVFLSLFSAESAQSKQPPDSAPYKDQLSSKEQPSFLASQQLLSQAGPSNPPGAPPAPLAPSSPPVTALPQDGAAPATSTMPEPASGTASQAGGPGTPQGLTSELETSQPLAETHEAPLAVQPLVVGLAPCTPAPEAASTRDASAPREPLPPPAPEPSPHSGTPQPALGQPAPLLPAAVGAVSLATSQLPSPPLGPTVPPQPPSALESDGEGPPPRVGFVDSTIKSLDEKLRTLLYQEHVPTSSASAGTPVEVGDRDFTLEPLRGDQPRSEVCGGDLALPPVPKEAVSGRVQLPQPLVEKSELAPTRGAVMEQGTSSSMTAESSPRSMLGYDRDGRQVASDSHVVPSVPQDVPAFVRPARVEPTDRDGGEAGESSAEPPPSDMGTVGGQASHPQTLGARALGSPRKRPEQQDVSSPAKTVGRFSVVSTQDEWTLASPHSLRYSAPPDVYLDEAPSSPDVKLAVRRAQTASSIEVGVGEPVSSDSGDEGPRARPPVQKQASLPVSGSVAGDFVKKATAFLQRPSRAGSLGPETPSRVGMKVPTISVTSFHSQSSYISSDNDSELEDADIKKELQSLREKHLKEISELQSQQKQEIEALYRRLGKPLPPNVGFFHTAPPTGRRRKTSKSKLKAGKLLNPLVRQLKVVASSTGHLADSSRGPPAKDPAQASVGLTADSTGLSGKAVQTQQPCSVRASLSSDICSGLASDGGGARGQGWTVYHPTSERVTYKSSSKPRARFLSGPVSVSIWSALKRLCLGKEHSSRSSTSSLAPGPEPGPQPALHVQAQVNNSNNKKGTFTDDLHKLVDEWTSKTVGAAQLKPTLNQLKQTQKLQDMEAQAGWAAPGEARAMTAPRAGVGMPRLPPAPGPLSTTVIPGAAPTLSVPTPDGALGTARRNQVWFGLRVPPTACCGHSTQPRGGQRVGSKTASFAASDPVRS", "how_it_was_run": "as §1"}}, "note": "No end group written: not given here.", "data": [{"sequence": "FAKLAARLYRKALARQLGVAA [MMI-0300]", "values": [{"measurement": "% activity", "setting": "CDK6/cyclinD3(h)", "result": 86, "unit": "%"}, {"measurement": "% activity", "setting": "CaMKIV(h)", "result": 17, "unit": "%"}, {"measurement": "% activity", "setting": "EphA4(h)", "result": 88, "unit": "%"}, {"measurement": "% activity", "setting": "IKKα(h)", "result": 93, "unit": "%"}, {"measurement": "% activity", "setting": "NEK3(h)", "result": 92, "unit": "%"}, {"measurement": "% activity", "setting": "PASK(h)", "result": 29, "unit": "%"}, {"measurement": "% activity", "setting": "WNK2(h)", "result": 64, "unit": "%"}]}, {"sequence": "HRRIKAWLKKIKALARQLGVAA (Mammal) [MMI-0500]", "values": [{"measurement": "% activity", "setting": "CDK6/cyclinD3(h)", "result": 23, "unit": "%"}, {"measurement": "% activity", "setting": "CaMKIV(h)", "result": -1, "unit": "%"}, {"measurement": "% activity", "setting": "EphA4(h)", "result": 48, "unit": "%"}, {"measurement": "% activity", "setting": "IKKα(h)", "result": 50, "unit": "%"}, {"measurement": "% activity", "setting": "NEK3(h)", "result": 20, "unit": "%"}, {"measurement": "% activity", "setting": "PASK(h)", "result": 9, "unit": "%"}, {"measurement": "% activity", "setting": "WNK2(h)", "result": 8, "unit": "%"}]}, {"sequence": "KAFAKLAARLYRKALARQLGVAA [MMI-0400]", "values": [{"measurement": "% activity", "setting": "CDK6/cyclinD3(h)", "result": 85, "unit": "%"}, {"measurement": "% activity", "setting": "CaMKIV(h)", "result": 18, "unit": "%"}, {"measurement": "% activity", "setting": "EphA4(h)", "result": 65, "unit": "%"}, {"measurement": "% activity", "setting": "IKKα(h)", "result": 87, "unit": "%"}, {"measurement": "% activity", "setting": "NEK3(h)", "result": 85, "unit": "%"}, {"measurement": "% activity", "setting": "PASK(h)", "result": 28, "unit": "%"}, {"measurement": "% activity", "setting": "WNK2(h)", "result": 54, "unit": "%"}]}, {"sequence": "YARAAARQARAKALARQLGVAA [MMI-0100]", "values": [{"measurement": "% activity", "setting": "EphA4(h)", "result": 110, "unit": "%"}, {"measurement": "% activity", "setting": "IKKα(h)", "result": 108, "unit": "%"}, {"measurement": "% activity", "setting": "NEK3(h)", "result": 100, "unit": "%"}, {"measurement": "% activity", "setting": "PASK(h)", "result": 81, "unit": "%"}, {"measurement": "% activity", "setting": "WNK2(h)", "result": 95, "unit": "%"}]}, {"sequence": "YARAAARQARAKALNRQLGVA (Mammal) [MMI-0200]", "values": [{"measurement": "% activity", "setting": "CDK6/cyclinD3(h)", "result": 100, "unit": "%"}, {"measurement": "% activity", "setting": "CaMKIV(h)", "result": 71, "unit": "%"}, {"measurement": "% activity", "setting": "EphA4(h)", "result": 127, "unit": "%"}, {"measurement": "% activity", "setting": "NEK3(h)", "result": 100, "unit": "%"}, {"measurement": "% activity", "setting": "PASK(h)", "result": 60, "unit": "%"}, {"measurement": "% activity", "setting": "WNK2(h)", "result": 94, "unit": "%"}]}]}
